In the assay the target is T1, nucleoprotein of influenza A virus (NP383-391) peptide on HLA-B*27:05 (human).
T1 peptide: SRYWAIRTR
Nature of the assay: activation reporter or marker.

B1: GRb (TCR, V domains shown)
Valpha: AQTVTQSQPEMSVQEAETVTLSCTYDTSENNYYLFWYKQPPSRQMILVIRQEAYKQQNATENRFSVNFQKAAKSFSLKISDSQLGDAAMYFCAYFSGGSNYKLTFGKGTLLTVNP
Vbeta: DTEVTQTPKHLVMGMTNKKSLKCEQHMGHRAMYWYKQKAKKPPELMFVYSYEKLSINESVPSRFSPECPNSSLLNLHLHALQPEDSALYLCASSQEVLDTQYFGPGTRLTVL
Consider B1, for which the binding result is reported as “recognises”.

The values above are taken from patent publication US20130259876A1 (published 2013).
